Source: article PMC11014909 (2024)

B1: GST-Pif1N(56–77) [S. cerevisiae] / Rfa1N(1–132)-4myc [S. cerevisiae] (parent complex)
chain 1: KHPSILSKEDLDLLSDSDDWEE
chain 2: MSSVQLSRGDFHSIFTNKQRYDNPTGGVYQVYNTRKSDGANSNRKNLIMISDGIYHMKALLRNQAASKFQSMELQRGDIIRVIIAEPAIVRERKKYVLLVDDFELVQSRADMVNQTSTFLDNYFSEHPNETL

Variants of: B1
Test: GST pull-down followed by myc-specific western blotting, quantified; n = 3 biological replicates; parent: 0.53; read off a plot

Variant	response
chain 1 KHPSILSKEDAAAASDSDDWEE [chain 1 L11A, chain 1 D12A, chain 1 L13A, chain 1 L14A]	~0.077 % of input
